This is an account of results in article PMC5030355.

The data set deals with RIG-I (recombinant). Put plainly: filter binding. To be noted: 25 mM Tris-HCl pH 7.5, 150 mM NaCl, 1.5 mM MgCl2, room temperature, filter binding with 600 nM BSA, 30 min, pull-down in lysate with 0.5% Triton X-100.

Usually Kd stands for the constant that tells how readily two partners part at equilibrium. In the case of polyU/UC RNA 2'FdU, the dissociation constant Kd (2'-fluoro-deoxyuridine substituted for U) amounted to 29 nM.

For polyU/UC RNA pseudouridine, for the setting “pseudouridine substituted for U”, the dissociation constant (Kd) stood at 255 nM.

For polyU/UC RNA m6A, the dissociation constant (Kd) (N6-methyladenosine substituted for A) is greater than 1070 nM.

Regarding polyU/UC RNA canonical, the Kd amounted to 186 nM.
